According to patent US20150166647A1 (VLST, published 2015):

Key:
Test in all cases: MSD electrochemiluminescence assay; chemokine coated at 1 µg/mL, 18V4F at 3 µg/mL; background = BSA
I-309 = molecular target: T1, I-309
T1 construct: also called I-309/CCL1; CCL1
T1 chemokine: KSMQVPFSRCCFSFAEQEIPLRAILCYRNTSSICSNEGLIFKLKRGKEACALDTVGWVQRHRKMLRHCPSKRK

Eotaxin-2 = molecular target: T2, Eotaxin-2
T2 construct: also called Eotaxin-2/CCL24; CCL24
T2 chemokine: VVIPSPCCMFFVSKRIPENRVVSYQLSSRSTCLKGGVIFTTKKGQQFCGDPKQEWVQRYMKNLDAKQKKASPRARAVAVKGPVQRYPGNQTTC

MIP3-α = molecular target: T3, MIP3-α
T3 construct: also called LARC/MIP-3α/CCL20; CCL20
T3 sequence (chemokine, as listed by the source): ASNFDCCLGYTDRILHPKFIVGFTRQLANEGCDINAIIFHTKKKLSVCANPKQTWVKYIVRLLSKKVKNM

HCC-4 = molecular target: T4, HCC-4
T4 construct: also called HCC-4/CCL16; CCL16
T4 chemokine: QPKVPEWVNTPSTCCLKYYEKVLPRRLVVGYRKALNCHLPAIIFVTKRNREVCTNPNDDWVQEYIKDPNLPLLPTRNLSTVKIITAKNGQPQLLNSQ

MCP-3 = molecular target: T5, MCP-3
T5 construct: also called MCP-3/CCL7; CCL7
T5 sequence (chemokine, as listed by the source): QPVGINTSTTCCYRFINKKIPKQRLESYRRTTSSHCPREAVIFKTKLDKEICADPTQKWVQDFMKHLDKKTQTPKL

MCP-4 = molecular target: T6, MCP-4
T6 construct: also called MCP-4/CCL13; CCL13
T6 sequence (chemokine, as listed by the source): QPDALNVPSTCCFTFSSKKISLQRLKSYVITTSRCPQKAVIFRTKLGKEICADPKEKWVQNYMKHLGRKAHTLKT

Eotaxin = molecular target: T7, Eotaxin
T7 construct: also called Eotaxin/CCL11; CCL11
T7 sequence (chemokine, as listed by the source): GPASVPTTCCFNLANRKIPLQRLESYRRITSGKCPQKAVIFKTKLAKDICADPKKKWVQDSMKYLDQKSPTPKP

MDC = molecular target: T8, MDC
T8 construct: also called MDC/CCL22; CCL22
T8 chemokine: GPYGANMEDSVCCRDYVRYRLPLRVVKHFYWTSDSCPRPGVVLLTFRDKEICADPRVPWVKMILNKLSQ

ELC = molecular target: T9, ELC
T9 construct: also called ELC/MIP-3β/CCL19; CCL19
T9 chemokine: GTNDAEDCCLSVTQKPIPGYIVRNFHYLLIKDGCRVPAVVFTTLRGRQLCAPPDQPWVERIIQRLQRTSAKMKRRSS

human MPIF-1/CCL23 = molecular target: T10, human MPIF-1/CCL23 (human, UniProt P55773 46-120)
T10 sequence: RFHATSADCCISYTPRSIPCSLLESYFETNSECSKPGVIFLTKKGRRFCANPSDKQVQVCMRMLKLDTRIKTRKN

human HCC-2/MIP-1δ/CCL15 = molecular target: T11, human HCC-2/MIP-1δ/CCL15 (human, UniProt Q16663 46-113)
T11 sequence: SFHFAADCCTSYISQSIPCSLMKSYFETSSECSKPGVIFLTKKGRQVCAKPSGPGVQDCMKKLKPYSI

human HCC-1/CCL14/CCL14a = molecular target: T12, human HCC-1/CCL14/CCL14a (human, UniProt Q16627 28-93)
T12 sequence: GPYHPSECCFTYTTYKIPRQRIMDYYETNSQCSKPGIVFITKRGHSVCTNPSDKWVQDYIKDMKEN

human PARC/CCL18 = molecular target: T13, human PARC/CCL18 (human, UniProt P55774 21-89)
T13 sequence: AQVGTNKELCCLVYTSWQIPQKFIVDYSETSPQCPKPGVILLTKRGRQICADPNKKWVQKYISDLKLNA

human MCP-1/CCL2 = molecular target: T14, human MCP-1/CCL2 (human, UniProt P13500 24-99)
T14 construct: also called Biotin-MCP1
T14 sequence (P13500 24-99 limits assumed): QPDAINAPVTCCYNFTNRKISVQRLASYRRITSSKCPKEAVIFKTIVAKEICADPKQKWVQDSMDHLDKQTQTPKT

binding result (I-309): no binding (tested: 3 µg/mL) | binding result (Eotaxin-2): no binding (tested: 3 µg/mL) | binding result (MIP3-α): no binding (tested: 3 µg/mL) | binding result (HCC-4): no binding (tested: 3 µg/mL) | binding result (MCP-3): no binding (tested: 3 µg/mL) | binding result (MCP-4): no binding (tested: 3 µg/mL) | binding result (Eotaxin): no binding (tested: 3 µg/mL) | binding result (MDC): no binding (tested: 3 µg/mL) | binding result (ELC): no binding (tested: 3 µg/mL) | binding result (human MPIF-1/CCL23): no binding (tested: 3 µg/mL) | binding result (human HCC-2/MIP-1δ/CCL15): no binding (tested: 3 µg/mL) | binding result (human HCC-1/CCL14/CCL14a): no binding (tested: 3 µg/mL) | binding result (human PARC/CCL18): no binding (tested: 3 µg/mL) | binding result (human MCP-1/CCL2): no binding (tested: 3 µg/mL)
B1: monoclonal antibody 18V4F (antibody, V domains shown)
VH: QVQLKESGPGLVAPSQSLSITCTVSGFSLTGYGIHWVRQPPGKGLEWLGVIWPGGGTNYNSALMSRLSISKDNSKSQVFLKMNSLQTDDTAMYYCARGPLITTEVSMDYWGQGTSVTVSS
VL: QAVVTQESALTTSPGETVTLTCRSNTGAVTTSNYANWVQEKPDHLFTGLIGGTNNRAPGVPARFSGSLIGDKAALTITGAQTEDEAIYFCALWYSNHWVFGGGTKLTVLG
notes: also called MAb 18V4F
